Assay [1] addresses T1, human Nectin-4 protein (human, UniProt Q96NY8 32-349).
T1 construct: Purified protein used for coating in ELISA and as analyte in Octet; also called human Nectin-4 antigen
T1 sequence (looked up): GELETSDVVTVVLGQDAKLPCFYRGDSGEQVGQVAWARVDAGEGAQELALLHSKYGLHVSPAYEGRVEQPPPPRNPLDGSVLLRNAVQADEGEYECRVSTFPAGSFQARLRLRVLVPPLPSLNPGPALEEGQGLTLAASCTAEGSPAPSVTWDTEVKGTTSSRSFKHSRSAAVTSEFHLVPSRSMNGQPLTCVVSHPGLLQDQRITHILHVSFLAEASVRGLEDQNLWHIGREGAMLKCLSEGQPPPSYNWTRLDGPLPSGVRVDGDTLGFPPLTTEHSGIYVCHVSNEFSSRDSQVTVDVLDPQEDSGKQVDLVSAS
As to the kind of experiment: ELISA, coated antigen. An excerpt: (§1) The affinity of anti-human Nectin-4 humanized monoclonal antibodies to Nectin-4 protein of different species was detected by ELISA.
(In general: ELISA stands for enzyme-linked immunosorbent assay.)

The target in assay [2] is T2, cynomolgus monkey Nectin-4 protein (cynomolgus monkey).
T2 construct: also called cynomolgus monkey Nectin-4 antigen
As to the kind of experiment: ELISA, coated antigen.
Source text: as §1

Assay [3] addresses T3, human Nectin-4 on cell membrane surface (human, UniProt Q96NY8 32-510).
T3 construct: whole, on cells; also called A549-Nectin-4; T24-Nectin-4
T3 sequence (looked up): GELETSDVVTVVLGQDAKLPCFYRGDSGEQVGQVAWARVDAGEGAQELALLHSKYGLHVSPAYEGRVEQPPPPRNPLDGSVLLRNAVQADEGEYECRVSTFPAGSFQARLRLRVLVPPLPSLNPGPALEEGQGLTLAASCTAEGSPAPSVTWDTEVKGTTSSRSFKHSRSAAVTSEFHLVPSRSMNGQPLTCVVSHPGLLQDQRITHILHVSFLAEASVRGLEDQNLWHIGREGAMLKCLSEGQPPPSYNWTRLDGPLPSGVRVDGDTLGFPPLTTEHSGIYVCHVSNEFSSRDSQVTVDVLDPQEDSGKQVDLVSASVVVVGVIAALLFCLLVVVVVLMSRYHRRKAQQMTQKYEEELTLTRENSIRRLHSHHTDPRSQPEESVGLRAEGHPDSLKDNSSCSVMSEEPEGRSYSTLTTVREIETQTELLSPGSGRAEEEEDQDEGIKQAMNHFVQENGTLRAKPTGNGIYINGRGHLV
As to the kind of experiment: flow cytometry on T47D cells. As to the method:
The specific steps were as follows: T47D cells were digested, resuspended by centrifugation, and washed twice with PBS; the cells were resuspended in PBS (containing 1% BSA), and spread into a 96-well tip-bottom plate at 3×10⁵ cells/well, with a volume of 50 μl per well; 50 μL of the antibody to be tested was added to each well, starting at a final concentration of […], 4-fold gradient dilution, a total of 10 concentration points; Human IgG was used as a negative control; after being mixed well, the resulting mixture was reacted in the dark at 4° C. for 1 hour; washing was performed 3 times with PBS, FITC-labeled anti-human Fc secondary antibody (brand: BioLegend, product number: 409322) was added, incubated at 4° C. for 0.5 hours in the dark; washing was performed 3 times with PBS, and detection was carried out using a flow cytometer (flow cytometer brand: Beckman, model: Cytoflex).
On the technique in general: A flow cytometer gives signals particle by particle.

The target of assay [4] is T4, two IgC domains of human Nectin-4 overexpressed on A549 cells (human, UniProt Q96NY8 148-349, limits assumed).
T4 construct: domain: two IgC domains; also called A549-Nectin-4-IgCC
T4 sequence (looked up): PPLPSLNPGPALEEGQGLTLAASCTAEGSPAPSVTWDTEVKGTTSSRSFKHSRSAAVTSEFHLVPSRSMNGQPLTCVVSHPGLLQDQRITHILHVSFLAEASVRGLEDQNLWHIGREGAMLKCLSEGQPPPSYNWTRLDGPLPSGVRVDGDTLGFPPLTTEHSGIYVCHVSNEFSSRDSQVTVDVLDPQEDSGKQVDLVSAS
Briefly: flow cytometry on A549-Nectin-4-IgCC cells. An excerpt: Human Nectin-4 contains one IgV domain and two IgC domains. To determine the binding domain of the anti-human Nectin-4 humanized monoclonal antibodies, an A549 stable cell line A549-Nectin-4-IgV overexpressing Nectin-4 IgV domain, and an A549 stable cell line A549-Nectin-4-IgCC overexpressing two IgC domains of Nectin-4 were constructed, and the binding domains of the antibody to be tested were detected by flow cytometry. The specific steps were as follows: A549-Nectin-4-IgV and A549-Nectin-4-IgCC cells were digested, resuspended by centrifugation, washed twice with PBS; the cells were resuspended with PBS (containing 1% BSA), and spread at 300,000 cells/well into a 96-well tip-bottom plate, 50 μl per well; 50 μL of the antibody to be tested at a final concentration of 40 μg/mL was added to each well, and Human IgG was used as a negative control; after being mixed well, the resulting mixture was reacted in the dark at 4° C. for 1 hour; washing was performed 3 times with PBS, FITC-labeled anti-human Fc secondary antibody (brand: BioLegend, product number: 409322) was added, incubated at 4° C. for 0.5 hours in the dark; washing was performed 3 times with PBS, and detection was carried out using a flow cytometer (flow cytometer brand: Beckman, model: Cytoflex).

Assay [5] addresses T3, human Nectin-4 on cell membrane surface. As to the kind of experiment: flow cytometry on NCI-N87 cells.
Assay [6] has as its target T1, human Nectin-4 protein. Briefly: ELISA, coated human Nectin-4, anti-human-HRP. An excerpt:
The Nectin family includes members of Nectin-1, Nectin-2, Nectin-3 and Nectin-4, and the members share a sequence identity of about 25%, but have similar structure and function. […]

For orientation: EC50 means the concentration giving half of the maximal effect. The EC50 (read off the curve) is the concentration needed to bring the measured effect to its halfway point.

B1: anti-human Nectin-4 humanized monoclonal antibody 74HZ (antibody, human IgG1, kappa, V domains shown)
VH: QVQLVQSGAEVKKPGSSVKVSCKASGYTFINYWMNWVRQAPGQGLEWIGMIHPSDSATRLNQSFQGRVTLTVDKSTSTAYMELSSLRSEDTAVYYCARWGNFYTVNAWYYFDYWGQGTLVTVSS
VL: DIVITQSPDSLAVSLGERATINCKSSQTLLNSNTQKNYLAWYQQKPGQSPKLLFYFASTRESGVPDRFSGSGSGTDFTLTISSLQAEDVAVYFCQQHYSTPLTFGQGTKLEIKR
notes: Human IgG1 heavy chain constant region, human kappa light chain constant region; expressed in CHO-E cells
For B1, the concentration for a half-maximal effect (EC50) stood at 8.34 ng/mL in assay [1], 6.73 ng/mL in assay [2] and 22.3 ng/mL in assay [3]. Further, the binding result in assay [4] was “no binding”.

B2: anti-human Nectin-4 humanized monoclonal antibody 31HZ (antibody, human IgG1, kappa, V domains shown)
VH: QVQLVQSGAEVKKPGSSVKVSCKASGYTFTDYWMNWVRLAPGQGLEWIGMIHPSDSETRLNQKFQGRVTLTVDKSTSTAYMELSSLRSEDTAVYYCARWDFRIYYAMDYWGQGTLVTVSS
VL: DVVITQSPDSLAVSLGERATINCKSSQSLLNTNSQKNYLAWYQQKPGQSPKLLVYFASTRESGVPDRFSGSGSGTDFTLTISSLQAEDVAVYFCQQHYSTPLTFGGGTKVEIKR
notes: as for B1
Regarding B2, the EC50 in assay [1] turned out to be 3.6 ng/mL; in assay [2], 4.45 ng/mL; in assay [3], 12.3 ng/mL. The binding result in assay [4] was “no binding”.

B3: anti-human Nectin-4 humanized monoclonal antibody 56HZ (antibody, human IgG1, kappa, V domains shown)
VH: QVQLQESGPGLVKPSQTLSLTCTVSGYFNSITSDYDWHWIRHHPGKGLEWMGYISFSGRTYYNPSLKSRVTISHDTSKNQFSLKLSSVTAADTAVYYCARGNYDGFDYWGQGTLVTVSS
VL: DIVLTQSPATLSLSPGERATLSCRASQNIGTSIHWYQHKPGQSPRLLIKFASESISGIPARFSGSGSGTDFTLTISSLEPEDFAVYYCQQSKSWPTYTFGGGTKVEIKR
notes: as for B1
In the case of B3, the values for the concentration giving a half-maximal response (EC50) in assay [1], in assay [2] and in assay [5] were 9.48 ng/mL, 9.85 ng/mL and 16.4 ng/mL, respectively. In addition, in assay [4], the binding result is “no binding”. The “EC50 (read off the curve)” value in assay [6] is roughly 6 ng/mL.

The values are drawn from US20240228612A1 (SICHUAN KELUN BIOTECH BIOPHARMACEUTICAL, published 2024).
